# Results: paper PMC7518877, “The prefusion structure of herpes simplex virus glycoprotein B” (Science Advances, 2020)
# B1: HSV-1 glycoprotein B H516P, full-length, membrane-anchored, on extracellular vesicles (natural protein)
# chain: not shown
# notes: glycoprotein B (gB) of herpes simplex virus 1, full length with membrane anchor and cytoplasmic domain, gene in plasmid pEP98; Trimer embedded in the vesicle membrane; prefusion (compact) conformation; also called gB H516P; H516P gB variant; source: BHK-21 cells, transiently transfected; on extracellular vesicles harvested from the supernatant by differential centrifugation
# Target: the molecule itself
# Test: cryo-EM structure; electron cryo tomography and sub-volume averaging of gB H516P on purified extracellular vesicles; vesicles in 20 mM Hepes (pH 8), 150 mM NaCl; 46,067 sub-volumes, C3 symmetrised; ectodomain 9.0 Å; domains of the postfusion crystal structure fitted as rigid bodies and by MD-based flexible fitting
protein,measurement,value
B1,stoichiometry N,3
